Consider 78 sequences from the supplement of paper PMC7877785.

The data set can be described thus: self-splicing fitness, log relative to wild type (ln ratio); higher = more splicing; Tetrahymena group I intron in knt gene, E. coli kanamycin selection, DiMSum; sequences stand for … in CUCUCU…GGAGGGAAAAGUUAUCAGGCAUGCACCUGGUAGCUAGUCUUUAAACCAAUAGAUUGCAUCGGUUUAAAAGGCAAGACCGUCAAAUUGCGGGAAAGGGGUCAACAGCCGUUCAGUACCAAGUCUCAGGGGAAACUUUGAGAUGGCCUUGCAAAGGGUAUGGUAAUAAGCUGACGGACAUGGUCCUAACCACGCAGCCAAGUCCUAAGUCAACAGAUCUUCUGUUGAUAUGGAUGCAGUUCACAGACUAAAUGUCGGUCGGGGAAGAUGUAUUCUUCUCAUAAGAUAUAGUCGGACCUCUCCUUAAUGGGAGCUAGCGGAUGAAGUGAUGCAACACUGGAGCCGCUGGGAACUAAUUUGUAUGCGAAAGUAUAUUGAUUAGUUUUGGAGUACUCGUGGUCG
The method in brief:
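Colonies from six replicate transformations of E. coli BL21(DE3) were pooled and amplicon-sequenced on an Illumina HiSeq 2500. The library placed an intron with all eight P1ex-region nucleotides randomised inside the knt kanamycin-resistance gene on pET-22b(+), and cells grew overnight at 37°C or 30°C on LB agar with or without 25 μg/mL kanamycin (plus 100 μg/mL carbenicillin, 50 μM IPTG, 0.2% rhamnose). Fitness is the DiMSum error-weighted combination of wild-type-normalised replicate fold changes, kanamycin versus none.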

± gives the uncertainty stated by the source.

Take GCCGAGCAAUAUUACGACAA: the “self-splicing fitness (ln)” value is -3.38 ± 0.34 (30 °C) and -2.05 ± 0.24 (37 °C).
The matching figures for CUUCAGCAAUAUUACGGUGC: -3.36 ± 0.21 and -1.56 ± 0.31.
The matching figures for GCGGAGCAAUAUUACGAUCA: -2.43 ± 0.41 and -1.56 ± 0.32.
The matching figures for ACCUAGCAAUAUUACGAAGG: -2.16 ± 0.086 and -1.85 ± 0.15.
On to CACCAGCAAUAUUACGAAUU, for which the “self-splicing fitness (ln)” value is -3.18 ± 0.15 (30 °C) and -2.92 ± 0.17 (37 °C).
For AGGAAGCAAUAUUACGUUCC the same measures were -2.96 ± 0.39 and -2.59 ± 0.48.
For AUGCAGCAAUAUUACGAGUG the same measures were -2.88 ± 0.11 and -1.64 ± 0.11.
For the sequence AGCGAGCAAUAUUACGUUGC, the “self-splicing fitness (ln)” value (37 °C) was -3.69 ± 0.42.
Take CACCAGCAAUAUUACGUGGG: the “self-splicing fitness (ln)” value is -3.41 ± 0.095 (30 °C) and -3.03 ± 0.12 (37 °C).
As to AGAUAGCAAUAUUACGUAUU, the “self-splicing fitness (ln)” value was -2.63 ± 0.14 (30 °C) and -1.35 ± 0.12 (37 °C).
The matching figures for UCCGAGCAAUAUUACGGGAG: -3.81 ± 0.22 and -2.79 ± 0.19.
The matching figures for CGGCAGCAAUAUUACGACAG: 0.187 ± 0.11 and -1.27 ± 0.12.
With AGUGAGCAAUAUUACGUGUG, the “self-splicing fitness (ln)” value (30 °C) was -2.69 ± 0.21.
As for GAGAAGCAAUAUUACGAGAU, the “self-splicing fitness (ln)” value is, setting by setting: (30 °C) -4.47 ± 0.42; (37 °C) -2.1 ± 0.22.
For GCAGAGCAAUAUUACGCUUA the same measures were -1.76 ± 0.3 and -1.99 ± 0.3.
For UGCCAGCAAUAUUACGCGAG the same measures were -3.22 ± 0.17 and -2.92 ± 0.21.
The matching figures for CAGAAGCAAUAUUACGUGGC: -3.7 ± 0.16 and -2.15 ± 0.15.
Turning to UGGGAGCAAUAUUACGUUCU, the “self-splicing fitness (ln)” value is, setting by setting: (30 °C) -2.95 ± 0.29; (37 °C) -2.35 ± 0.32.
The matching figures for UUGGAGCAAUAUUACGGGAA: -3.64 ± 0.38 and -0.82 ± 0.17.
On to AAAAAGCAAUAUUACGGAAA, for which the “self-splicing fitness (ln)” value reads like this: (30 °C) -2.24 ± 0.18; (37 °C) -1.58 ± 0.19.
The matching figures for UACAAGCAAUAUUACGAUUU: -1.76 ± 0.066 and -0.754 ± 0.084.
For AGGCAGCAAUAUUACGUAGA the same measures were -2.33 ± 0.15 and -0.171 ± 0.11.
Take CGGUAGCAAUAUUACGCUCC: the “self-splicing fitness (ln)” value (30 °C) was -2.2 ± 0.38.
Turning to CUAAAGCAAUAUUACGCUUC, the “self-splicing fitness (ln)” value (30 °C) is -3.03 ± 0.22.
Consider GCAAAGCAAUAUUACGUCAU, for which the “self-splicing fitness (ln)” value runs as follows: (30 °C) -2.25 ± 0.096; (37 °C) -1.37 ± 0.091.
For GUAUAGCAAUAUUACGCCCA the same measures were -1.33 ± 0.15 and -0.76 ± 0.17.
For UGCAAGCAAUAUUACGGUUG, the “self-splicing fitness (ln)” value reads like this: (30 °C) -2.49 ± 0.11; (37 °C) -1.88 ± 0.13.
The matching figures for ACCAAGCAAUAUUACGGCAA: -0.915 ± 0.08 and -0.348 ± 0.099.
The matching figures for GCGCAGCAAUAUUACGACGC: -2.89 ± 0.33 and -1.81 ± 0.35.
The matching figures for CAUUAGCAAUAUUACGCUGG: -2.7 ± 0.13 and -1.67 ± 0.14.
For the sequence CCCAAGCAAUAUUACGGUGG, the “self-splicing fitness (ln)” value was -3.69 ± 0.15 (30 °C) and -2.71 ± 0.15 (37 °C).
The matching figures for GGUUAGCAAUAUUACGGCAA: 0.963 ± 0.39 and -0.363 ± 0.27.
For GAAAAGCAAUAUUACGUUUA the same measures were -1.32 ± 0.11 and -0.963 ± 0.1.
The matching figures for UCCGAGCAAUAUUACGGUAA: -2.21 ± 0.18 and -1.08 ± 0.12.
In the case of UUACAGCAAUAUUACGGUAC, the “self-splicing fitness (ln)” value by setting is: (30 °C) -3.98 ± 0.22; (37 °C) -2.26 ± 0.14.
As to AGAUAGCAAUAUUACGGGCA, the “self-splicing fitness (ln)” value is, setting by setting: (30 °C) -1.12 ± 0.13; (37 °C) 0.0415 ± 0.12.
Consider CUCCAGCAAUAUUACGAUGC, for which the “self-splicing fitness (ln)” value is -2.81 ± 0.25 (30 °C) and -2.95 ± 0.32 (37 °C).
As to UCUAAGCAAUAUUACGUCCA, the “self-splicing fitness (ln)” value reads like this: (30 °C) -2 ± 0.14; (37 °C) -0.707 ± 0.13.
The matching figures for UUGUAGCAAUAUUACGAAUU: -1.53 ± 0.34 and -1.47 ± 0.38.
For CCCAAGCAAUAUUACGGUGC the same measures were -3.6 ± 0.27 and -2.26 ± 0.22.
As for ACCCAGCAAUAUUACGAGAU, the “self-splicing fitness (ln)” value is -1.72 ± 0.061 (30 °C) and -0.655 ± 0.073 (37 °C).
The matching figures for GCCUAGCAAUAUUACGGCAG: -2.72 ± 0.19 and -2.18 ± 0.42.
For CAGUAGCAAUAUUACGGGCA the same measures were -3.05 ± 0.27 and -2.35 ± 0.25.
For CGGAAGCAAUAUUACGGUCG the same measures were -1.55 ± 0.099 and -0.978 ± 0.12.
For AUAGAGCAAUAUUACGCCUG, the “self-splicing fitness (ln)” value is, setting by setting: (30 °C) -0.827 ± 0.092; (37 °C) 0.302 ± 0.15.
For UCCCAGCAAUAUUACGCAAG the same measures were -3.45 ± 0.16 and -2.69 ± 0.21.
For GACCAGCAAUAUUACGGCGU the same measures were 0.046 ± 0.071 and 0.319 ± 0.087.
The matching figures for UACAAGCAAUAUUACGGUGU: -3.91 ± 0.17 and -1.71 ± 0.12.
For GCCAAGCAAUAUUACGAGGG, the “self-splicing fitness (ln)” value is, setting by setting: (30 °C) -2.8 ± 0.094; (37 °C) -1.82 ± 0.11.
Regarding GAUGAGCAAUAUUACGUUGU, the “self-splicing fitness (ln)” value (37 °C) was -1.69 ± 0.3.
Consider UAUGAGCAAUAUUACGUCAC, for which the “self-splicing fitness (ln)” value is -4.15 ± 0.46 (30 °C) and -2.26 ± 0.49 (37 °C).
For ACCAAGCAAUAUUACGCGAG the same measures were -2.46 ± 0.076 and -1.27 ± 0.072.
For GAUAAGCAAUAUUACGAGCC the same measures were -1.5 ± 0.17 and -1.27 ± 0.23.
As for UUGGAGCAAUAUUACGGUGC, for the setting “30 °C”, the “self-splicing fitness (ln)” value is -1.64 ± 0.31.
Turning to UUAGAGCAAUAUUACGAGUG, the “self-splicing fitness (ln)” value is -3.12 ± 0.16 (30 °C) and -1.53 ± 0.13 (37 °C).
UUUUAGCAAUAUUACGGCUU: the “self-splicing fitness (ln)” value runs as follows: (30 °C) -1.98 ± 0.17; (37 °C) -0.826 ± 0.2.
The matching figures for CAACAGCAAUAUUACGUUUU: -3.57 ± 0.11 and -2.19 ± 0.11.
For CAUCAGCAAUAUUACGAUGU the same measures were -3.52 ± 0.15 and -2.58 ± 0.15.
For CUUCAGCAAUAUUACGGAUC the same measures were -1.38 ± 0.08 and -0.259 ± 0.1.
Take GCAUAGCAAUAUUACGAGAC: the “self-splicing fitness (ln)” value was -2.7 ± 0.32 (30 °C) and -1.59 ± 0.23 (37 °C).
In the case of UGCGAGCAAUAUUACGCCUC, where the note is “30 °C”, the “self-splicing fitness (ln)” value was -2.78 ± 0.43.
On to CAGAAGCAAUAUUACGAAAA, for which the “self-splicing fitness (ln)” value is -4.31 ± 0.46 (30 °C) and -2.65 ± 0.21 (37 °C).
For CACAAGCAAUAUUACGAUUC the same measures were -3.55 ± 0.16 and -0.651 ± 0.11.
Take GCAAAGCAAUAUUACGUAGG: the “self-splicing fitness (ln)” value runs as follows: (30 °C) -1.52 ± 0.05; (37 °C) -0.897 ± 0.074.
The matching figures for CGGGAGCAAUAUUACGAUGU: -2.47 ± 0.39 and -2.53 ± 0.39.
For ACAAAGCAAUAUUACGGCCC the same measures were -0.546 ± 0.13 and -0.479 ± 0.2.
The matching figures for AGUGAGCAAUAUUACGAAAA: -3.16 ± 0.16 and -2.23 ± 0.23.
Consider CGAUAGCAAUAUUACGAGGA, for which the “self-splicing fitness (ln)” value (30 °C) was -3.08 ± 0.38 and the “self-splicing fitness (ln)” value (37 °C) was -2.27 ± 0.38.
Take GCGUAGCAAUAUUACGAGUG: the “self-splicing fitness (ln)” value runs as follows: (30 °C) -1.78 ± 0.15; (37 °C) -1.19 ± 0.21.
In the case of AUGUAGCAAUAUUACGAGCC, the “self-splicing fitness (ln)” value (37 °C) was -1.05 ± 0.49.
Regarding UACCAGCAAUAUUACGCAUG, the “self-splicing fitness (ln)” value is -1.22 ± 0.062 (30 °C) and -1.09 ± 0.078 (37 °C).
As to CGGCAGCAAUAUUACGGCGC, the “self-splicing fitness (ln)” value is, setting by setting: (30 °C) -2.64 ± 0.27; (37 °C) -2.53 ± 0.24.
The matching figures for CAAGAGCAAUAUUACGAGCC: -4.42 ± 0.34 and -2.31 ± 0.32.
For CGAAAGCAAUAUUACGGCAU the same measures were -2.26 ± 0.12 and -0.29 ± 0.089.
As for UCCUAGCAAUAUUACGGCGC, the “self-splicing fitness (ln)” value by setting is: (30 °C) -2.21 ± 0.24; (37 °C) -1.69 ± 0.23.
For GGUAAGCAAUAUUACGUGAG the same measures were -1.03 ± 0.079 and 0.0462 ± 0.09.
For CGACAGCAAUAUUACGUUGU the same measures were -3.46 ± 0.1 and -3.25 ± 0.15.
In the case of CCGUAGCAAUAUUACGAAUA, under “30 °C”, the “self-splicing fitness (ln)” value is -2.99 ± 0.28.
